Two proteins from patent publication US20050266509 can be followed below.

Numbering of substitutions follows the chain as printed.

In series [1] the target is constitutive active Src kinase.
Series [2] deals with NR2B, full length clone (NMDA receptor subunit), Q13224.
Sequence of NR2B, full length clone (NMDA receptor subunit), Q13224 (Q13224 27-1484): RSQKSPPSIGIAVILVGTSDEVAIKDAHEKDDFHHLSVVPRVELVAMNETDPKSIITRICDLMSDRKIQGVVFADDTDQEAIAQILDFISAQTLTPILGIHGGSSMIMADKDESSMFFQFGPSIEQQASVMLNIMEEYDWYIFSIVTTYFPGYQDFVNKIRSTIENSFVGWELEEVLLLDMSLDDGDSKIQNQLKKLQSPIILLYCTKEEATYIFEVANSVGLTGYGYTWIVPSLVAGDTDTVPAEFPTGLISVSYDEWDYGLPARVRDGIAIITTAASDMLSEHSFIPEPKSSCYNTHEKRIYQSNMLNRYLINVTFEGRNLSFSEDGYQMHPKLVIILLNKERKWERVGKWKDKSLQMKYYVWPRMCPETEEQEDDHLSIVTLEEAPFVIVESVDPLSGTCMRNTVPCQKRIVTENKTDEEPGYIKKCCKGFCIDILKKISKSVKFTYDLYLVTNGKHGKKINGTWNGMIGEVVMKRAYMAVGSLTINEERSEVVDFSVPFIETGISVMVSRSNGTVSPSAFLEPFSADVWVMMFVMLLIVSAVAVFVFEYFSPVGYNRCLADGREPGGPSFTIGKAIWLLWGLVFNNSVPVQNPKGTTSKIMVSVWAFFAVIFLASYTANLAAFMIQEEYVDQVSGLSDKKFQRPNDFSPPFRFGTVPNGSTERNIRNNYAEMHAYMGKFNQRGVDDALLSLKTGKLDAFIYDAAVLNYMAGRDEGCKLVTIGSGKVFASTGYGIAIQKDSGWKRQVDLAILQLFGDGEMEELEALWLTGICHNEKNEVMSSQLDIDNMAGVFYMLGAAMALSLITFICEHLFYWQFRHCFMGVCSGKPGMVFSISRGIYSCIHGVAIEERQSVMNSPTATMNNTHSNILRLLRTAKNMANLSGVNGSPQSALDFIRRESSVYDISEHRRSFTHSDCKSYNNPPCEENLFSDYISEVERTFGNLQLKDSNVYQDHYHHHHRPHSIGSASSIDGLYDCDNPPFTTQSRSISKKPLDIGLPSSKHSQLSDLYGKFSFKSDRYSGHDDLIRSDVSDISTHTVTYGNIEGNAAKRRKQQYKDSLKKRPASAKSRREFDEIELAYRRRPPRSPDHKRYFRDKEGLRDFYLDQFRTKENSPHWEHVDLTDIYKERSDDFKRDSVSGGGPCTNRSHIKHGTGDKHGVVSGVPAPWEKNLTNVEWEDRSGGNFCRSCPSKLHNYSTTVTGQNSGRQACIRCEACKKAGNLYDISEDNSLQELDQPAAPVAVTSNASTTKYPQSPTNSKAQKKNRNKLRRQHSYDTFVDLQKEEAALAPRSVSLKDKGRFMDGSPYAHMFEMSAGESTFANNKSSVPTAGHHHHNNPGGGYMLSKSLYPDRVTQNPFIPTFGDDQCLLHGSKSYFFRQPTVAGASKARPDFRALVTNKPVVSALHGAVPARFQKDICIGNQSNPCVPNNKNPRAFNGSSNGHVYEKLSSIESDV

B1: PTPMEG, full length clone (amino-terminal myc-tag, c-terminal HA tag) (protein)
chain: MTSRFRLPAGRTYNVRASELARDRQHTEVVCNILLLDNTVQAFKVNKHDQGQVLLDVVFKHLDLTEQDYFGLQLADDSTDNPRWLDPNKPIRKQLKRGSPYSLNFRVKFFVSDPNKLQEEYTRYQYFLQIKQDILTGRLPCPSNTAALLASFAVQSELGDYDQSENLSGYLSDYSFIPNQPQDFEKEIAKLHQQHIGLSPAEAEFNYLNTARTLELYGVEFHYARDQSNNEIMIGVMSGGILIYKNRVRMNTFPWLKIVKISFKCKQFFIQLRKELHESRETLLGFNMVNYRACKNLWKACVEHHTFFRLDRPLPPQKNFFAHYFTLGSKFRYCGRTEVQSVQYGKEKANKDRVFARSPSKPLARKLMDWEVVSRNSISDDRLETQSLPSRSPPGTPNHRNSTFTQEGTRLRPSSVGHLVDHMVHTSPSEVFVNQRSPSSTQANSIVLESSPSQETPGDGKPPALPPKQSKKNSWNQIHYSHSQQDLESHINETFDIPSSPEKPTPNGGIPHDNLVLIRMKPDENGRFGFNVKGGYDQKMPVIVSRVAPGTPADLCVPRLNEGDQVVLINGRDIAEHTHDQVVLFIKASCERHSGELMLLVRPNAVYDVVEEKLENEPDFQYIPEKAPLDSVHQDDHSLRESMIQLAEGLITGTVLTQFDQLYRKKPGMTMSCAKLPQNISKNRYRDISPYDATRVILKGNEDYINANYINMEIPSSSIINQYIACQGPLPHTCTDFWQMTWEQGSSMVVMLTTQVERGRVKCHQYWPEPTGSSSYGCYQVTCHSEEGNTAYIFRKMTLFNQEKNESRPLTQIQYIAWPDHGVPDDSSDFLDFVCHVRNKRAGKEEPVVVHCSAGIGRTGVLITMETAMCLIECNQPVYPLDIVRTMRDQRAMMIQTPSQYRFVCEAILKVYEEGFVKPLTTSTNK
On to B1, for which, in series [1], the “Src phosphorylation at position 418, western blot with anti PY418 antibody” value is “In presence of the active wildtype PTPMEG phosphatase, both the NR2B subunit as well as Src kinase were dephosphorylated”; the “phosphorylation at Y418, western blot with a Src/fyn specific phosphoantibody” value was “In presence of PTPMEG (identified with a c-myc antibody from Upstate) there is a dephosphorylation of Src and fyn at position Y418”. In addition, the “NR2B tyrosine phosphorylation, western blot with an NR2B phosphospecific antibody” value in series [2] is listed as “In presence of the active wildtype PTPMEG phosphatase, both the NR2B subunit as well as Src kinase were dephosphorylated”.

B2: PTPMEG-CS (inactive PTPase), full length clone (amino-terminal myc-tag, c-terminal HA tag) (protein)
chain: B1 chain with C852S
Turning to B2, the “Src phosphorylation at position 418, western blot” value in series [1] is “Dephosphorylation of NR2B and Src kinase was reversed by addition of dephostatin, and unaffected in presence of the dominant negative form of PTPMEG (CS)”. Moreover, the “NR2B tyrosine phosphorylation, western blot” value in series [2] is “Dephosphorylation of NR2B and Src kinase was reversed by addition of dephostatin, and unaffected in presence of the dominant negative form of PTPMEG (CS)”.
